What was measured:
[1] = target: T1, human PD-1 extracellular domain protein expressed in Example 1 (tag not stated) (human, UniProt Q15116 25-170); test: ELISA; pH 6.0, 37°C 7 days, against 0 day
T1 construct: extracellular domain; also called PD-1 protein; not shown: human IgG1 Fc or his tag

[2] = target: T2, human TIM-3 extracellular domain-human IgG1 Fc fusion protein (human, UniProt Q8TDQ0 22-199); test: ELISA; pH 6.0, 37°C 7 days, against 0 day
T2 construct: Made in house or bought (ACROBiosystems TM3-H5258); also called TIM-3-hFc; not shown: human IgG1 Fc

[3] = target: T1, human PD-1 extracellular domain protein …; test: ELISA; pH 5.5, 40°C 5 days, against 0 day
[4] = target: T2, human TIM-3 extracellular domain-human …; test: ELISA; pH 5.5, 40°C 5 days, against 0 day
[5] = target: T1, human PD-1 extracellular domain protein …; test: blocking ELISA, PD-1 coated, competitor biotin-labeled PD-L1
[6] = target: T1, human PD-1 extracellular domain protein …; test: ELISA; 28.5 mg/mL, His buffer pH 5.5, 37°C 0 day (-80°C)
[7] = target: T2, human TIM-3 extracellular domain-human …; test: as above
[8] = target: T1, human PD-1 extracellular domain protein …; test: ELISA, PD-1 coated
Protocol: PD-1 expressed in Example 1 was diluted to a concentration of 1 μg/ml with PBS buffer, pH 7.4, and added to a 96-well microplate (Corning, CLS3590-100EA) at 50 μl per well, thereby incubating in an incubator at 37° C. for 2 hours. After discarding the liquid, a blocking solution of 5% skimmed milk (Shanghai Shenggong Biological Engineering Co., Ltd., A600669-0250) diluted with PBS was added at 200 μl per well, followed by incubating at 37° C. for 3 hours or 4° C. overnight (16-18 hours)) for blocking. Subsequently, the blocking solution was discarded, and the microplate was washed 5 times with PBST buffer (pH 7.4 PBS containing 0.05% tween-20). […] Subsequently, the microplate was washed 5 times with PBST, then 50 μl/well of 1:2500 diluted HRP-labeled secondary antibody (Jackson Immuno Research, 115-035-003) was added, thereby incubating at 37° C. for 1 hour. After washing the microplate 5 times with PBST, 50 μl/well TMB chromogenic substrate (KPL, 52-00-03) was added, then incubated at room temperature for 5-10 min. Finally, 50 μl/well of 1M H₂SO₄ was added to stop the reaction. […] Go microplate reader (ThermoFisher, 51119200) was used to read the absorption value at 450 nm and the EC50 based on the OD value was calculated.
The above-mentioned TIM-3 and PD-1 bispecific antibodies of the present invention were optimized and designed using the methods of Example 2 and Example 5, and their affinity for TIM-3 and PD-1 were tested respectively.

[9] = target: T1, human PD-1 extracellular domain protein …; test: ELISA; pH 5.5, 37°C 5 days, against 0 day
[10] = target: T2, human TIM-3 extracellular domain-human …; test: ELISA; pH 5.5, 37°C 5 days, against 0 day
[11] = target: T1, human PD-1 extracellular domain protein …; test: ELISA; PBS, 37°C 7 days, against 0 day
[12] = target: T2, human TIM-3 extracellular domain-human …; test: ELISA; PBS, 37°C 7 days, against 0 day
[13] = target: T1, human PD-1 extracellular domain protein …; test: ELISA; PBS, 37°C 14 days (degraded sample)
[14] = target: T2, human TIM-3 extracellular domain-human …; test: ELISA; PBS, 37°C 14 days (degraded sample)
[15] = target: T2, human TIM-3 extracellular domain-human …; test: ELISA

B1: bispecific antibody LB141 (bispecific antibody, human IgG4 S228P, kappa)
light: EIVLTQSPATLSLSPGERATLSCRASKGVSTSGYSYLHWYQQKPGQAPRLLIYLASYLESGVPARFSGSGSGTDFTLTISSLEPEDFAVYYCQHSRDLPLTFGGGTKVEIKRTVAAPSVFIFPPSDEQLKSGTASVVCLLNNFYPREAKVQWKVDNALQSGNSQESVTEQDSKDSTYSLSSTLTLSKADYEKHKVYACEVTHQGLSSPVTKSFNRGEC
heavy: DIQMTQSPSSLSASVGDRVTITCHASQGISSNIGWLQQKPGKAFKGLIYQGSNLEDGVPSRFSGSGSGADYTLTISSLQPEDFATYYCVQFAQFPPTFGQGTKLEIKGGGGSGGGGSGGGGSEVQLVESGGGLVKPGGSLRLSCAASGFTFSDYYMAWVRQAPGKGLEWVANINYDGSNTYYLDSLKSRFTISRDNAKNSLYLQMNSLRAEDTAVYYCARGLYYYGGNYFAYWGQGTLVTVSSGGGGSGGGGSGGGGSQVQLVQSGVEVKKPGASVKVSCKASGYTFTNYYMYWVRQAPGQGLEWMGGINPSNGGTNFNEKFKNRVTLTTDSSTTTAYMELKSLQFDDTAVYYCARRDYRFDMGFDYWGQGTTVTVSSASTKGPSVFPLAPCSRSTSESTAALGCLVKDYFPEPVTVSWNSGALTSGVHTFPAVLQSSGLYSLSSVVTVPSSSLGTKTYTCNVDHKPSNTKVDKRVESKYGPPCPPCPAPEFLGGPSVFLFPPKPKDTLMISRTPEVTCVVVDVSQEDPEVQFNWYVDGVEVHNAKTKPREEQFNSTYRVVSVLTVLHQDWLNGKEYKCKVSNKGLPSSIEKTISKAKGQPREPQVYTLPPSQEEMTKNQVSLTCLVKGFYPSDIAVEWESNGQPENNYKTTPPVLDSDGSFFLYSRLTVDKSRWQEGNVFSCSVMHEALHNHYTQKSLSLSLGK
notes: ab6VL-(G4S)3-ab6VH-(G4S)3-PemVH-hIgG4 with PemVL-κ
Fold change of EC50 [1]: 0.79 ratio
Fold change of EC50 [2]: 0.83 ratio
Fold change of EC50 [3]: 1.1 ratio
Fold change of EC50 [4]: 0.95 ratio
IC50 [5]: 1.66 nM
EC50 [6]: 0.181 nM
EC50 [7]: 0.36 nM
EC50 [8]: 0.052 nM
Fold change of EC50 [9]: 1.2 ratio
Fold change of EC50 [10]: 0.93 ratio
Fold change of EC50 [11]: 1.16 ratio
Fold change of EC50 [12]: 1.28 ratio
EC50 [13]: 0.4 nM
EC50 [14]: 0.685 nM
EC50 [15]: 0.648 nM

From patent US20210269521A1 (L AND L BIOPHARMA, published 2021)
